# Source: US20200109212A1 (INTERVET, published 2020)
# Tests used:
# [1] = target: T1, canine PD-L1 extracellular domain-human IgG1 Fc fusion protein (canine); test: cell-based ELISA (CELISA): mAb pre-incubated with cPD-L1-hFc, then added to CHO cells expressing canine PD-1; bound cPD-L1-hFc detected with anti-human Fc-HRP, OD 450-620 nm; blocked partner: canine PD-1
# T1 construct: Expressed in HEK 293 cells and purified on Protein A; also called canine PD-L1-hFc fusion protein; cPD-L1-hFc
# Description: Ligand blockade was confirmed using this assay in conjunction with canine PD-L1/h Fec protein as follows: [0233] 1. Seed cPD-1 CHO cells in 96-well plates and grow the cells to 95-100% confluent. [0234] General guidelines for plating CHO cells, [0235] on day −3: […] (1×10⁵c/mL) [0236] −2: 2×10⁴ c/well ([…]) [0237] −1: 4×10⁴ c/well (4×10⁵ c/mL) [0238] 2. 3-fold dilute anti-cPDL1 mAbs in CHO media, starting at 30 μg/mL, 100 μL/well. Add cPD-L1-hFc to 4 μg/ml in CHO media, 100 μL/well, co-incubate in a dilution plate at 37° C., 5% CO₂ with shaking for 60 min. [0239] 3. Aspirate cell culture media from the cell coated plates, wash the plates 3×PBS+0.05% Tween20 and 1×CHO media. [0240] 4. Add the co-incubated cPD-L1 mAbs/PD-L1 Fc from the dilution plate to the cell coated plate. 100 uL/well. Incubate at 37° C., 5% CO₂ with shaking for 60 min. [0241] 5. Wash the plates 6×PBS+0.05% Tween 20 (using manual wash protocol). [0242] 6. Add Anti-Human Fc-HRP (Calbiochem) (1:2500) in CHO media, 100 ul/well, incubate 30-60 min at 37° C./5% CO₂. [0243] 7. Wash the plates 5×PBS+0.05% Tween20 (using manual wash protocol). [0244] 8. Add 100 μl/well TMB mircowell substrate. Incubate at room temp for 10 minutes. Use one step substrate from Pierce. [0245] 9. Stop with 100 μl/well 1.5M Phosphoric acid. [0246] 10. Measure A450-A620 on the ELISA reader.
# [2] = target: T1, canine PD-L1 extracellular domain-human …; test: ELISA, plate coated with canine PD-L1-hFc, two-fold dilutions of mAb, detection with HRP goat anti-mouse IgG, OD 650/490
# Description: Hybridoma cells in the cell chamber were expanded to approximately 2.5×10⁷ cells/mL over 3-7 days. Then, 10 mL of cell suspension was harvested from the cell chamber and replaced with fresh media to allow for re-expansion of cells and subsequent harvests. This procedure was repeated as necessary to obtain adequate amounts of mAb from each hybridoma clone. Harvested cell suspensions were centrifuged and the supernatants were filtered through 0.2 micron filter membranes. For antibody purification, each clone's supernatant was purified using a Protein G Sepharose 4 Fast flow 5 mL column (GE Healthcare) by gravity flow. After washing with Tris-EDTA (TE) buffer pH 8.0, bound antibodies were eluted using 0.1 M glycine buffer, pH 2.7, followed by pH neutralization using 1 M Tris, pH 8.0. Antibodies were concentrated and buffer exchanged into phosphate-buffered saline (PBS) using Centriprep YM-10.10 kDa NMWL centrifugal filter units (Millipore). Antibody concentrations were quantified using spectrophotometry. […] The color reaction is allowed to develop for 5-20 minutes at 37° C. prior to measuring absorbance at 650 nm.
# T1 sequence (chain, as listed by the source limits assumed): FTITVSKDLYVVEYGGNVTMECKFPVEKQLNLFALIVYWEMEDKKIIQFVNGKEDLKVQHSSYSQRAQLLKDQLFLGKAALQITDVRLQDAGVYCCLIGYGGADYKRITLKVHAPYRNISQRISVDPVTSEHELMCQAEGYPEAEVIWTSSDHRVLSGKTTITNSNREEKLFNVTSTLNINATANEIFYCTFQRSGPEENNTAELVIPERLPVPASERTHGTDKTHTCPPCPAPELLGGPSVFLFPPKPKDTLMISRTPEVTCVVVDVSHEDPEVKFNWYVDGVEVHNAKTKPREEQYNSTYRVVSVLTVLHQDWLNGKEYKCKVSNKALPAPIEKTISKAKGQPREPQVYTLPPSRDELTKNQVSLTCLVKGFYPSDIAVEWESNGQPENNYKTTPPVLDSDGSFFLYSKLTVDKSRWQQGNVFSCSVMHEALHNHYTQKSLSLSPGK
Binder,IC50 (read off the curve) [1] [nM],binding result [2]
"mouse anti-canine PD-L1 monoclonal antibody 4F9 (antibody, V domains shown, also called mAb 4F9) VH: EVQLVESGGGLVKPGGSLKLSCAASGFTFSSYAMSWVRQTPDKRLEWVATISDGGSYTHYPDNLMGRFTISRDNAKNNLYLQMSHLKSDDTAMYYCARESYDGYYVANWGQGTLVTVSA VL: DIVLTQSPATLSVNPGDSVSLSCRASQSISNNLHWYQQKSHESPRLLIKYASQSISGIPSRFSGSGSGTDFTLSINSVETEDFGMYFCQQSNSWPQTFGGGTKLEIK",~20,
"mouse anti-canine PD-L1 monoclonal antibody 5F12 (antibody, V domains shown, also called mAb 5F12; Anti-PDL-1 5F12) VH: QVQLQQSGPELVKPGASVKISCKASGYTFTDYYMNWVKQRPGQGLEWIGWIFPGSGATYYNERFMGKATLTVDKSSNTAYMLFSSLTSEDSAVYFCLRSDWDVGDFWGQGTTLTVSS VL: DIVMTQAAFSNPVTLGTSASISCRSSRSLLHTNGITYLSWFLQKPGQSPQLLIYQMSNLASGVPDRFSSSGSGTDFTLRISRVEAEDVGIYYCAQTLGLPRTFGGGTKLEIK",,binds
